Results on three molecules are retold here after US20230147840A1 (Chugai, published 2023).

Usually Kd stands for the constant that tells how readily two partners part at equilibrium. A higher Kd goes with a looser complex. As usually defined, the koff is the rate constant with which the complex falls apart. High values mean a short-lived complex, low ones a long-lived complex. As usually defined, the kon is the rate constant with which the complex forms.

For test [1], the target named is T1, Human CD3eg linker (human).
T1 construct: Single-chain soluble construct; also called recombinant human CD3
T1 chain: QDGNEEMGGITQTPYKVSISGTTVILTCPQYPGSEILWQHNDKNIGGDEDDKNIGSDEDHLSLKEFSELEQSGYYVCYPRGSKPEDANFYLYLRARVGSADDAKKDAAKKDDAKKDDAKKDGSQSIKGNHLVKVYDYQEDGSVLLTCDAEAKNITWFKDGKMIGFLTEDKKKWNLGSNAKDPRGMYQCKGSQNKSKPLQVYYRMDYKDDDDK
Nature of the test: SPR Biacore 8K, 25 C; reference xGPC3/DualAE05-xSG1350kSG1349hV11. The procedure: (§1) Binding affinity of Dual-Ig antibodies to human CD3 were assessed at 25 degrees C. using Biacore 8K instrument (GE Healthcare). Anti-human Fc (GE Healthcare) was immobilized onto all flow cells of a CM4 sensor chip using amine coupling kit (GE Healthcare). Antibodies were captured onto the anti-Fc sensor surfaces, then recombinant human CD3 or CD137 was injected over the flow cell. All antibodies and analytes were prepared in ACES pH 7.4 containing 20 mM ACES, 150 mM NaCl, 0.05% Tween 20, 0.005% NaN₃. Sensor surface was regenerated each cycle with 3M MgCl₂. […] CD137 binding affinity assay was conducted in same condition except assay temperature was set at 37 degrees C.
This is caused by faster off rate in FAST-Ig construct. […] This is caused by faster off rate in FAST-Ig construct.
A general note: In SPR one partner is held on a chip, and binding of the other changes the refractive index at the surface.

The target in test [2] is T1, Human CD3eg linker. The test is described as follows: SPR Biacore 8K, Ab captured on anti-human Fc, CD3 as analyte, 25 C. The procedure:
as §1

In test [3] the target is T2, Human CD137 extracellular domain (ECD) (human).
T2 construct: also called Human CD137 ECD; recombinant human CD137
The test is described as follows: SPR Biacore 8K, Ab captured on anti-human Fc, CD137 as analyte, 37 C. As to the method:
as §1

Test [4] concerns the target T1, Human CD3eg linker. The test is described as follows: SPR (Biacore T200, 25 degrees C), in-tandem blocking assay; antibody captured on anti-human Fc, 8 µM hCD3eg injected as analyte. As to the method:
(§2) Biacore in-tandem blocking assay was performed to characterize non-simultaneous binding of Dual-Ig Ab for both CD3 and CD137. The assay was performed on Biacore T200 instrument (GE Healthcare) at 25 degrees C. in ACES pH 7.4 buffer containing 20 mM ACES, 150 mM NaCl, 0.05% Tween 20, 0.005% NaN₃. Anti-human Fc (GE Healthcare) was immobilized onto all flow cells of a CM4 sensor chip using amine coupling kit (GE Healthcare). Antibodies were captured onto the anti-Fc sensor surfaces, then 8 micro M CD3 was injected over the flow cell followed by an identical injection of 8 micro M CD137 in the presence of 8 micro M CD3. An increased of binding response for second injection was indicative of binding to different paratopes therefore a simultaneous binding interactions; whereas no enhancement or decreased of binding response for the 2nd injection was indicative of binding to the same or overlapping or adjacent paratopes, therefore a non-simultaneous binding interactions.

The target in test [5] is T2, Human CD137 extracellular domain (ECD). Nature of the test: SPR (Biacore T200, 25 degrees C), in-tandem blocking assay; antibody captured on anti-human Fc, first saturated with 8 µM hCD3eg, then 8 µM hCD137 injected in the presence of 8 µM hCD3eg. The procedure:
as §2

Changes are numbered by the printed parent chain.

T2 sequence (chain, as listed by the source limits assumed): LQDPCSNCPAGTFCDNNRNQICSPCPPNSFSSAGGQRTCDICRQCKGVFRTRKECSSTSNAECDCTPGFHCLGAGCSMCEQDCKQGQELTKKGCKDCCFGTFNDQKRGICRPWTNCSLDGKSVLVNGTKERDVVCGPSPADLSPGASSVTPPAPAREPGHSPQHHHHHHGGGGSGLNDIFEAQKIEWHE

B1: GPC3EK/DualAE05KE-SG1365k1363hV11 (bispecific antibody, V domains shown)
VH 1: QVQLVQSGAEVKKPGASVTVSCKASGYTFTDYEMHWIREPPGEGLEWIGAIDGPTPDTAYSEKFKGRVTLTADKSTSTAYMELSSLTSEDTAVYYCTRFYSYTYWGQGTLVTVSS
VL 1: DIVMTQSPLSLPVTPGEPASISCRSSQPLVHSNRNTYLHWYQKKPGQAPRLLIYKVSNRFSGVPDRFSGSGSGTDFTLKISRVEAEDVGVYYCGQGTQVPYTFGQGTKLEIK
VH 2: QVQLVESGGGLVQPGRSLRLSCAASGFKFSNVWFHWVRKAPGKGLEWVAQIKDYYNAYAAYYAPSVKGRFTISRDDSKNSIYLQMNSLKTEDTAVYYCHYVHYASASTLLPAEGVDAWGQGTTVTVSS
VL 2: DIVMTQSPLSLPVTPGEPASISCQPSQEVVHMNRNTYLHWYQEKPGQAPRLLIYKVSNRFPGVPDRFSGSGSGTDFTLKISRVEAEDVGVYYCAQGTSHPFTFGQGTKLEIK
notes: 1+1 tri-specific, FAST-Ig format; Full chains not tied by name
B1: the “fold weaker binding affinity than CrossMab xSG1350” value in the test with Human CD3eg linker [1] was around 3 fold. Also, in the test with Human CD3eg linker [2], the affinity, expressed as Kd, was 751 nM; the off-rate (koff) came out at 0.0628 s⁻¹; the kon amounted to 83500 M⁻¹ s⁻¹. In test [3], binding was put at a Kd of 43.5 nM, the koff came to 0.00063 s⁻¹ and the kon is 14500 M⁻¹ s⁻¹.

B2: xGPC3/DualAE15-xSG1350k1349hV11 (bispecific antibody, V domains shown)
VH 1: B1 VH 1 with E39Q
VL 1: B1 VL 1 with K43Q
VH 2: B1 VH 2 with K39Q, A60G, A63H, S105A, T108Q
VL 2: B1 VL 2 with E43Q
notes: 1+1 tri-specific, CrossMab format; Full chains not tied by name; also called xGPC3DualAE15-xSG1350kSG1349hV11; xGPC3/DualAE15-xSG1350kSG1349hV11
With B2, the binding result (with Human CD3eg linker [4]; in test [5]) was “binds” throughout.

B3: GPC3KE/DualAE05EK-SG1363k1365hV11 (bispecific antibody, V domains shown)
VH 1: B1 VH 1 with E39K
VL 1: B1 VL 1 with K43E
VH 2: B1 VH 2 with K39E
VL 2: B1 VL 2 with E43K
notes: as for B1
B3: in the test with Human CD3eg linker [1], the “fold weaker binding affinity than CrossMab xSG1350” value is around 3 fold. In the test with Human CD3eg linker [2], this molecule displayed a Kd of 806 nM, a koff of 0.0611 s⁻¹ and a kon of 75900 M⁻¹ s⁻¹. In test [3], this molecule yielded a Kd of 38 nM, a koff of 0.000506 s⁻¹ and an on-rate (kon) of 13300 M⁻¹ s⁻¹.
